# Results published in publication PMC6895265.
# B1: 12-mer TA-flanked, X=M (dsDNA)
# DNA 1: ATACACGTGTAT
# DNA 2: ATACACGTGTAT
# modifications: 5mC at C4 and C6 of both strands
# B2: 12-mer TA-flanked, X=H (dsDNA)
# DNA 1: ATACACGTGTAT
# DNA 2: ATACACGTGTAT
# modifications: 5hmC at C4 and C6 of both strands
# Molecular target: TCF4 bHLH domain (Homo sapiens, UniProt P15884 565-624)
# Experiment: ITC
# Sequence of TCF4 bHLH domain (P15884 565-624): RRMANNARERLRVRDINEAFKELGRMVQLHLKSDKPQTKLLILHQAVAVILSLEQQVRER
row,Binder,binding result
1,B1,no binding
2,B2,no binding
